Like-named read-outs stand apart in the source and are kept apart here.
Test system: HCoV-OC43 gRNA and sgRNA
Format: binding
Details: for target (unweighted spectral count, OC43 Probe II): OC43 Probe II capture on infected cells; for background (unweighted spectral count, no-probe control): no-probe control on infected cells

B1: DHX15 (protein, UniProt O43143 1-795, looked up)
ATP-dependent RNA helicase …: MSKRHRLDLGEDYPSGKKRAGTDGKDRDRDRDREDRSKDRDRERDRGDREREREKEKEKELRASTNAMLISAGLPPLKASHSAHSTHSAHSTHSTHSAHSTHAGHAGHTSLPQCINPFTNLPHTPRYYDILKKRLQLPVWEYKDRFTDILVRHQSFVLVGETGSGKTTQIPQWCVEYMRSLPGPKRGVACTQPRRVAAMSVAQRVADEMDVMLGQEVGYSIRFEDCSSAKTILKYMTDGMLLREAMNDPLLERYGVIILDEAHERTLATDILMGVLKEVVRQRSDLKVIVMSATLDAGKFQIYFDNCPLLTIPGRTHPVEIFYTPEPERDYLEAAIRTVIQIHMCEEEEGDLLLFLTGQEEIDEACKRIKREVDDLGPEVGDIKIIPLYSTLPPQQQQRIFEPPPPKKQNGAIGRKVVVSTNIAETSLTIDGVVFVIDPGFAKQKVYNPRIRVESLLVTAISKASAQQRAGRAGRTRPGKCFRLYTEKAYKTEMQDNTYPEILRSNLGSVVLQLKKLGIDDLVHFDFMDPPAPETLMRALELLNYLAALNDDGDLTELGSMMAEFPLDPQLAKMVIASCDYNCSNEVLSITAMLSVPQCFVRPTEAKKAADEAKMRFAHIDGDHLTLLNVYHAFKQNHESVQWCYDNFINYRSLMSADNVRQQLSRIMDRFNLPRRSTDFTSRDYYINIRKALVTGYFMQVAHLERTGHYLTVKDNQVVQLHPSTVLDHKPEWVLYNEFVLTTKNYIRTCTDIKPEWLVKIAPQYYDMSNFPQCEAKRQLDRIIAKLQSKEYSQY
- target (unweighted spectral count, OC43 Probe II) (type n_48_v, 48 hpi): 13
- background (unweighted spectral count, no-probe control) (type n_48_v, 48 hpi): 3

B2: NOP58 (protein, UniProt Q9Y2X3 1-529, looked up)
Nucleolar protein 58: MLVLFETSVGYAIFKVLNEKKLQEVDSLWKEFETPEKANKIVKLKHFEKFQDTAEALAAFTALMEGKINKQLKKVLKKIVKEAHEPLAVADAKLGGVIKEKLNLSCIHSPVVNELMRGIRSQMDGLIPGVEPREMAAMCLGLAHSLSRYRLKFSADKVDTMIVQAISLLDDLDKELNNYIMRCREWYGWHFPELGKIISDNLTYCKCLQKVGDRKNYASAKLSELLPEEVEAEVKAAAEISMGTEVSEEDICNILHLCTQVIEISEYRTQLYEYLQNRMMAIAPNVTVMVGELVGARLIAHAGSLLNLAKHAASTVQILGAEKALFRALKSRRDTPKYGLIYHASLVGQTSPKHKGKISRMLAAKTVLAIRYDAFGEDSSSAMGVENRAKLEARLRTLEDRGIRKISGTGKALAKTEKYEHKSEVKTYDPSGDSTLPTCSKKRKIEQVDKEDEITEKKAKKAKIKVKVEEEEEEKVAEEEETSVKKKKKRGKKKHIKEEPLSEEEPCTSTAIASPEKKKKKKKKRENED
- target (unweighted spectral count, OC43 Probe II capture) (36 hpi, type n_36_v, tested against no-probe control, FDR<10%): 4

B3: TUBB (protein, UniProt P07437 1-444, looked up)
Tubulin beta chain: MREIVHIQAGQCGNQIGAKFWEVISDEHGIDPTGTYHGDSDLQLDRISVYYNEATGGKYVPRAILVDLEPGTMDSVRSGPFGQIFRPDNFVFGQSGAGNNWAKGHYTEGAELVDSVLDVVRKEAESCDCLQGFQLTHSLGGGTGSGMGTLLISKIREEYPDRIMNTFSVVPSPKVSDTVVEPYNATLSVHQLVENTDETYCIDNEALYDICFRTLKLTTPTYGDLNHLVSATMSGVTTCLRFPGQLNADLRKLAVNMVPFPRLHFFMPGFAPLTSRGSQQYRALTVPELTQQVFDAKNMMAACDPRHGRYLTVAAVFRGRMSMKEVDEQMLNVQNKNSSYFVEWIPNNVKTAVCDIPPRGLKMAVTFIGNSTAIQELFKRISEQFTAMFRRKAFLHWYTGEGMDEMEFTEAESNMNDLVSEYQQYQDATAEEEEDFGEEAEEEA
- target (unweighted spectral count) (OC43 Probe II, 12 hpi (type n_12_v), infected cells, tested against no-probe control): 11
- target (unweighted spectral count, OC43 Probe II) (type n_36_v, 36 hpi): 11
- background (unweighted spectral count, no-probe control) (type n_36_v, 36 hpi): 4

Reference: patent publication US20230407373A1 (priority 2020, published 2023)
